These results are taken from IntAct's records for PubMed 25910212.

The labels stand for the following.
B1: Emerin (Homo sapiens), P50402 (parent)
chain: MDNYADLSDTELTTLLRRYNIPHGPVVGSTRRLYEKKIFEYETQRRRLSPPSSSAASSYSFSDLNSTRGDADMYDLPKKEDALLYQSKGYNDDYYEESYFTTRTYGEPESAGPSRAVRQSVTSFPDADAFHHQVHDDDLLSSSEEECKDRERPMYGRDSAYQSITHYRPVSASRSSLDLSYYPTSSSTSFMSSSSSSSSWLTRRAIRPENRAPGAGLGQDRQVPLWGQLLLFLVFVIVLFFIYHFMQAEEGNPF
partner: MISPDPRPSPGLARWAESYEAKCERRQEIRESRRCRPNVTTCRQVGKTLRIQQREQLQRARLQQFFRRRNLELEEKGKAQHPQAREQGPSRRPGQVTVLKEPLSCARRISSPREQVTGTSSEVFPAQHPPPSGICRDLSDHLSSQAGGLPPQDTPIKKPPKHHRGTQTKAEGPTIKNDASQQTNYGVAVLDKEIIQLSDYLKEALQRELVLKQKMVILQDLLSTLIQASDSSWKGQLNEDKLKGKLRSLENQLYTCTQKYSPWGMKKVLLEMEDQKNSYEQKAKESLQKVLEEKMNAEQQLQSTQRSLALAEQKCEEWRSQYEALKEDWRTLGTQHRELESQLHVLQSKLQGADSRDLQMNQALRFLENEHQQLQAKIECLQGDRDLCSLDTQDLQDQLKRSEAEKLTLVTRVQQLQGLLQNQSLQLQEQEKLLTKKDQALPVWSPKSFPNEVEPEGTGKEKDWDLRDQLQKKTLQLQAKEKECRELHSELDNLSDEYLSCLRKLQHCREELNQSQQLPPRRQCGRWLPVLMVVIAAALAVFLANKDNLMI
B2: ATP synthase mitochondrial F1 complex assembly factor 2 (Homo sapiens), Q8N5M1 (parent)
chain: MWRSCLRLRDGGRRLLNRPAGGPSASMSPGPTIPSPARAYAPPTERKRFYQNVSITQGEGGFEINLDHRKLKTPQAKLFTVPSEALAIAVATEWDSQQDTIKYYTMHLTTLCNTSLDNPTQRNKDQLIRAAVKFLDTDTICYRVEEPETLVELQRNEWDPIIEWAEKRYGVEISSSTSIMGPSIPAKTREVLVSHLASYNTWALQGIEFVAAQLKSMVLTLGLIDLRLTVEQAVLLSRLEEEYQIQKWGNIEWAHDYELQELRARTAAGTLFIHLCSESTTVKHKLLKE
partner: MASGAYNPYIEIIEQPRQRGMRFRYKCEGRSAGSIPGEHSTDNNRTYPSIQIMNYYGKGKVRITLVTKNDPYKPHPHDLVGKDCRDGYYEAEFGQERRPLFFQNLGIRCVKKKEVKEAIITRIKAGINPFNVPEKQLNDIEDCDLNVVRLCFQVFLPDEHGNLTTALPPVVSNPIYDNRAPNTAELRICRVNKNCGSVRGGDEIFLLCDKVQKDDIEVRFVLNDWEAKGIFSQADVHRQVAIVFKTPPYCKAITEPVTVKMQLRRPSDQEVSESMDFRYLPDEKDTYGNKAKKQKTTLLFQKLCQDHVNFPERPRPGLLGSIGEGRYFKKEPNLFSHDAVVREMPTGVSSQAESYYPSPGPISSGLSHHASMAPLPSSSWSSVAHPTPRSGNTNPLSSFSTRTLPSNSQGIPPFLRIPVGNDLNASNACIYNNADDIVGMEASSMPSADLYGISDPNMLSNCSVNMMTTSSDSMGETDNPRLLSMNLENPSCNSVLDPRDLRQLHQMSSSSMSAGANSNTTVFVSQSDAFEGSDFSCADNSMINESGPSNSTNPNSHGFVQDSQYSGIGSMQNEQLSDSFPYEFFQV
B3: Torsin-1A (Homo sapiens), O14656 (parent)
chain: MKLGRAVLGLLLLAPSVVQAVEPISLGLALAGVLTGYIYPRLYCLFAECCGQKRSLSREALQKDLDDNLFGQHLAKKIILNAVFGFINNPKPKKPLTLSLHGWTGTGKNFVSKIIAENIYEGGLNSDYVHLFVATLHFPHASNITLYKDQLQLWIRGNVSACARSIFIFDEMDKMHAGLIDAIKPFLDYYDLVDGVSYQKAMFIFLSNAGAERITDVALDFWRSGKQREDIKLKDIEHALSVSVFNNKNSGFWHSSLIDRNLIDYFVPFLPLEYKHLKMCIRVEMQSRGYEIDEDIVSRVAEEMTFFPKEERVFSDKGCKTVFTKLDYYYDD
partner: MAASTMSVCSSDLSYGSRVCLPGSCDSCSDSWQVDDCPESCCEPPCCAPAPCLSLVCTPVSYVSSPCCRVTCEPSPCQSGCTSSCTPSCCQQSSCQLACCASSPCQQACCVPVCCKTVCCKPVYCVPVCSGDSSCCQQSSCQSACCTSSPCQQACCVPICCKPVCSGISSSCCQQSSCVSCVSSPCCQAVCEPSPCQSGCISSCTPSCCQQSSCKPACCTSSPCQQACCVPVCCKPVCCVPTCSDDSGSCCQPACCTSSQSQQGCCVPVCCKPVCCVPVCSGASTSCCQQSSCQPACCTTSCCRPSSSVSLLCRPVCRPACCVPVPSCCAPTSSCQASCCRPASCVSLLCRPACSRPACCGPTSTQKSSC
B4: Low density lipoprotein receptor adapter protein 1 (Homo sapiens), Q5SW96 (parent)
chain: MDALKSAGRALIRSPSLAKQSWGGGGRHRKLPENWTDTRETLLEGMLFSLKYLGMTLVEQPKGEELSAAAIKRIVATAKASGKKLQKVTLKVSPRGIILTDNLTNQLIENVSIYRISYCTADKMHDKVFAYIAQSQHNQSLECHAFLCTKRKMAQAVTLTVAQAFKVAFEFWQVSKEEKEKRDKASQEGGDVLGARQDCTPSLKSLVATGNLLDLEETAKAPLSTVSANTTNMDEVPRPQALSGSSVVWELDDGLDEAFSRLAQSRTNPQVLDTGLTAQDMHYAQCLSPVDWDKPDSSGTEQDDLFSF
partner: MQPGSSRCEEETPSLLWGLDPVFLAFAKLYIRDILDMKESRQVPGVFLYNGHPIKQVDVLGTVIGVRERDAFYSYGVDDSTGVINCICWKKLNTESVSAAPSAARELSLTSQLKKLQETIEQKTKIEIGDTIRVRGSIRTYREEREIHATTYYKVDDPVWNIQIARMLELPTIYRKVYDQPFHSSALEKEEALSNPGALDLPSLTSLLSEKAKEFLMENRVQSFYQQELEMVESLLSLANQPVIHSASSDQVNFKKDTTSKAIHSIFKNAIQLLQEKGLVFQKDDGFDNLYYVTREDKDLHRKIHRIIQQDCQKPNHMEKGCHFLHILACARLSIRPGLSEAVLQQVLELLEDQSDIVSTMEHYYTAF
B5: Beta-crystallin A4 (Homo sapiens), P53673 (parent)
chain: MTLQCTKSAGPWKMVVWDEDGFQGRRHEFTAECPSVLELGFETVRSLKVLSGAWVGFEHAGFQGQQYILERGEYPSWDAWGGNTAYPAERLTSFRPAACANHRDSRLTIFEQENFLGKKGELSDDYPSLQAMGWEGNEVGSFHVHSGAWVCSQFPGYRGFQYVLECDHHSGDYKHFREWGSHAPTFQVQSIRRIQQ
partner: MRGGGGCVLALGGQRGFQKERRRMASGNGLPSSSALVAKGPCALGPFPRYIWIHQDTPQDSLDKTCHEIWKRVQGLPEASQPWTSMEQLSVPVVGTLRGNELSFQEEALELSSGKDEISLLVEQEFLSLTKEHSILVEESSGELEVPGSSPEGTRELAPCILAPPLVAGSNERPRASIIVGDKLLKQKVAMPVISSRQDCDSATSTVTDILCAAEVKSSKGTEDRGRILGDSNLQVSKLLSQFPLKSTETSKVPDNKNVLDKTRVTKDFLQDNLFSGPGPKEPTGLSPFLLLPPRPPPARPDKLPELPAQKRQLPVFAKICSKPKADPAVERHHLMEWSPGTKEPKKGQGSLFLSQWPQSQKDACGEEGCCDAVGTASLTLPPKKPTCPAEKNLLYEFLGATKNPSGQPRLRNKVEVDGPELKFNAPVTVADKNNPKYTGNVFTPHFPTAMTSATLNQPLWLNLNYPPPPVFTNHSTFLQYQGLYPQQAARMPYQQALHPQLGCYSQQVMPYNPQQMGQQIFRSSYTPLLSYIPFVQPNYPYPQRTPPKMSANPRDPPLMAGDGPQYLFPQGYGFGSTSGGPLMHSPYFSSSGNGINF
B6: Carbonic anhydrase-related protein (Homo sapiens), P35219 (parent)
chain: MADLSFIEDTVAFPEKEEDEEEEEEGVEWGYEEGVEWGLVFPDANGEYQSPINLNSREARYDPSLLDVRLSPNYVVCRDCEVTNDGHTIQVILKSKSVLSGGPLPQGHEFELYEVRFHWGRENQRGSEHTVNFKAFPMELHLIHWNSTLFGSIDEAVGKPHGIAIIALFVQIGKEHVGLKAVTEILQDIQYKGKSKTIPCFNPNTLLPDPLLRDYWVYEGSLTIPPCSEGVTWILFRYPLTISQLQIEEFRRLRTHVKGAELVEGCDGILGDNFRPTQPLSDRVIRAAFQ
partner: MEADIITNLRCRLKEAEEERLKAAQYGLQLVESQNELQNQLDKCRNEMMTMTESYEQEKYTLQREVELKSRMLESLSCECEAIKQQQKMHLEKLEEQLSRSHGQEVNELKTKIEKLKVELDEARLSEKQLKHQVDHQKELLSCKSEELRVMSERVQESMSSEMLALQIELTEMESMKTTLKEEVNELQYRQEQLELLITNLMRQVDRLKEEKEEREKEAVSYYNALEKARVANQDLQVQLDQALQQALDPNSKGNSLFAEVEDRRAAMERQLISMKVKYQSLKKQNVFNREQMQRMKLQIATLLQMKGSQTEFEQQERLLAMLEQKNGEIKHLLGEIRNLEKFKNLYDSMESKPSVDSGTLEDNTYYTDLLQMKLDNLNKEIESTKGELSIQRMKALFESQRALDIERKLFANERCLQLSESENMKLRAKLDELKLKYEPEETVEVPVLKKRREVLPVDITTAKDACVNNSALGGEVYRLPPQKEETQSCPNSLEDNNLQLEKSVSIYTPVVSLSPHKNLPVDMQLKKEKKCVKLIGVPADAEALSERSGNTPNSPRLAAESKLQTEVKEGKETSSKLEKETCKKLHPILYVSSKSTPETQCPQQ
B7: SWI/SNF-related matrix-associated actin-dependent regulator of chromatin subfamily A member 2 (Homo sapiens), P51531-1 (parent)
chain: MSTPTDPGAMPHPGPSPGPGPSPGPILGPSPGPGPSPGSVHSMMGPSPGPPSVSHPMPTMGSTDFPQEGMHQMHKPIDGIHDKGIVEDIHCGSMKGTGMRPPHPGMGPPQSPMDQHSQGYMSPHPSPLGAPEHVSSPMSGGGPTPPQMPPSQPGALIPGDPQAMSQPNRGPSPFSPVQLHQLRAQILAYKMLARGQPLPETLQLAVQGKRTLPGLQQQQQQQQQQQQQQQQQQQQQQQPQQQPPQPQTQQQQQPALVNYNRPSGPGPELSGPSTPQKLPVPAPGGRPSPAPPAAAQPPAAAVPGPSVPQPAPGQPSPVLQLQQKQSRISPIQKPQGLDPVEILQEREYRLQARIAHRIQELENLPGSLPPDLRTKATVELKALRLLNFQRQLRQEVVACMRRDTTLETALNSKAYKRSKRQTLREARMTEKLEKQQKIEQERKRRQKHQEYLNSILQHAKDFKEYHRSVAGKIQKLSKAVATWHANTEREQKKETERIEKERMRRLMAEDEEGYRKLIDQKKDRRLAYLLQQTDEYVANLTNLVWEHKQAQAAKEKKKRRRRKKKAEENAEGGESALGPDGEPIDESSQMSDLPVKVTHTETGKVLFGPEAPKASQLDAWLEMNPGYEVAPRSDSEESDSDYEEEDEEEESSRQETEEKILLDPNSEEVSEKDAKQIIETAKQDVDDEYSMQYSARGSQSYYTVAHAISERVEKQSALLINGTLKHYQLQGLEWMVSLYNNNLNGILADEMGLGKTIQTIALITYLMEHKRLNGPYLIIVPLSTLSNWTYEFDKWAPSVVKISYKGTPAMRRSLVPQLRSGKFNVLLTTYEYIIKDKHILAKIRWKYMIVDEGHRMKNHHCKLTQVLNTHYVAPRRILLTGTPLQNKLPELWALLNFLLPTIFKSCSTFEQWFNAPFAMTGERVDLNEEETILIIRRLHKVLRPFLLRRLKKEVESQLPEKVEYVIKCDMSALQKILYRHMQAKGILLTDGSEKDKKGKGGAKTLMNTIMQLRKICNHPYMFQHIEESFAEHLGYSNGVINGAELYRASGKFELLDRILPKLRATNHRVLLFCQMTSLMTIMEDYFAFRNFLYLRLDGTTKSEDRAALLKKFNEPGSQYFIFLLSTRAGGLGLNLQAADTVVIFDSDWNPHQDLQAQDRAHRIGQQNEVRVLRLCTVNSVEEKILAAAKYKLNVDQKVIQAGMFDQKSSSHERRAFLQAILEHEEENEEEDEVPDDETLNQMIARREEEFDLFMRMDMDRRREDARNPKRKPRLMEEDELPSWIIKDDAEVERLTCEEEEEKIFGRGSRQRRDVDYSDALTEKQWLRAIEDGNLEEMEEEVRLKKRKRRRNVDKDPAKEDVEKAKKRRGRPPAEKLSPNPPKLTKQMNAIIDTVINYKDRCNVEKVPSNSQLEIEGNSSGRQLSEVFIQLPSRKELPEYYELIRKPVDFKKIKERIRNHKYRSLGDLEKDVMLLCHNAQTFNLEGSQIYEDSIVLQSVFKSARQKIAKEEESEDESNEEEEEEDEEESESEAKSVKVKIKLNKKDDKGRDKGKGKKRPNRGKAKPVVSDFDSDEEQDEREQSEGSGTDDE

The variants in the first test derive from B1. The note with it: with TRAF3IP3, Q9Y228.
As to D72V, the “effect of a mutation on the interaction” value is “with no effect”.

In the next test the parent is B2. The conditions noted are these: with REL.
W94R: the “effect of a mutation on the interaction” value was “disrupting interaction strength”.

Variants of B3 are the subject of another test. The note with it: with kr107_human KRTAP10-7, P60409.
For D216H, the “effect of a mutation on the interaction” value is on record as “with no effect”. On the same count and under the same terms, to R288Q belongs “with no effect”.

A further test covers variants of B4. The note with it: with stn1_human STN1, Q9H668.
With R238W, the “effect of a mutation on the interaction” value was “with no effect”.

In the next test the parent is B5. The note with it: with ca094_human C1orf94, Q6P1W5.
As for F94S, the “effect of a mutation on the interaction” value was “disrupting interaction strength”. On the same count and under the same terms, to V36M belongs “disrupting interaction strength”; to L69P, “disrupting interaction strength”.

The variants in another test derive from B6. The conditions noted are these: with spdly_human SPDL1, Q96EA4.
On to S100P, for which the “effect of a mutation on the interaction” value is “disrupting interaction strength”.

The next test covers variants of B7. The conditions noted are these: with sdcb1_human SDCBP.
With D1546E, the “effect of a mutation on the interaction” value was “with no effect”.

The variants in a further test derive from B7. The note with it: with sdcb1_human SDCBP. The source holds these as a separate data set.
With D1546E, the “effect of a mutation on the interaction” value is “with no effect”.
